Tested on: bacterially-expressed calmodulin (non-methylated)

Xenopus laevis calmodulin protein methyltransferase, sequence (chain, as listed by the source): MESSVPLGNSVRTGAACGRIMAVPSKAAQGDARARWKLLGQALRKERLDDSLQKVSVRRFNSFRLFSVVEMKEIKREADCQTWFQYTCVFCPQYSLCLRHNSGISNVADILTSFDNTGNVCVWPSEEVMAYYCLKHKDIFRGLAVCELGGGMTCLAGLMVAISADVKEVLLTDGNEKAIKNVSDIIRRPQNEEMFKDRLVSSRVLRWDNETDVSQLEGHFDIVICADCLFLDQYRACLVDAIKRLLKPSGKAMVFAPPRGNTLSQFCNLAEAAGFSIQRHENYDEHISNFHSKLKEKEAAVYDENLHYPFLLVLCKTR

Substance	incorporation of radiolabel from [3H-methyl]AdoMet into calmodulin (phosphorimage)	methyltransferase activity (in vitro)	catalytic activity	specific activity
Xenopus laevis calmodulin protein methyltransferase	the radiolabel from [^3H-methyl]AdoMet was incorporated into calmodulin, in the presence of the recombinant calmodulin methyltransferases obtained from SEQ ID NO: 1, 2, and 3	Each of the proteins exhibited robust methyltransferase activity (in vitro) toward non-methylated forms of calmodulin	–	–
Homo sapiens calmodulin protein methyltransferase (valine at 209, catalytically active form)	the radiolabel from [^3H-methyl]AdoMet was incorporated into calmodulin, in the presence of the recombinant calmodulin methyltransferases obtained from SEQ ID NO: 1, 2, and 3	Each of the proteins exhibited robust methyltransferase activity (in vitro) toward non-methylated forms of calmodulin	alteration of the sequence of the clone to correspond to the gene-predicted valine restored catalytic activity to amounts similar to those observed for other cloned calmodulin KMTs	–
Tribolium casteaneum calmodulin protein methyltransferase	–	Each of the proteins exhibited robust methyltransferase activity (in vitro) toward non-methylated forms of calmodulin	–	–
Homo sapiens calmodulin protein methyltransferase, initially expressed clone with V209F (cDNA Accession BC 053733)	–	–	the initially expressed form of Hscalmodulin PKMT was catalytically inactive	–
Arabidopsis thaliana calmodulin protein methyltransferase	–	Each of the proteins exhibited robust methyltransferase activity (in vitro) toward non-methylated forms of calmodulin	–	–
Rattus norvegicus calmodulin protein methyltransferase	the radiolabel from [^3H-methyl]AdoMet was incorporated into calmodulin, in the presence of the recombinant calmodulin methyltransferases obtained from SEQ ID NO: 1, 2, and 3	Each of the proteins exhibited robust methyltransferase activity (in vitro) toward non-methylated forms of calmodulin	–	56 nmoles min^-1 mg protein^-1

Reference: patent publication US20110166208
